B1: TPPP (parent)
chain: LCKDCQVIDGRNVTVTDVDIVFSK
B2: FAM46C (parent)
chain: FDHLQNRLIATKNPEEIRGGGLLK

Variants of: B1
Assay: protein stability index of a GFP-peptide fusion (GPS, HEK-293T) (PSI 1-6); higher = more stable
Settings: c terminus: a fixed tail appended
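Also: lentivirally expressed fusions sorted by FACS into six bins by GFP to DsRed ratio, PSI derived from sequencing read proportions per bin multiplied by bin number.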

Row | Variant | protein stability index
1 | V18A | 2.9
2 | V18G | 3.11
3 | V18R | 3.06
4 | V18K | 2.77
5 | V18D | 3.58
6 | V18I | 2.44
7 | V18N | 3.79
8 | V18F | 2.54
9 | V18P | 2.73
10 | V18M | 1.92
11 | V18S | 3.12
12 | V18E | 3.52
13 | V18T | 3.69
14 | V18W | 2.23
15 | V18L | 2.4
16 | V18C | 2.48
17 | V18Y | 2.6
18 | V18H | 2.91
19 | V18Q | 3.16
20 | D19V | 1.95
21 | D19E | 1.79
22 | D19Q | 1.65
23 | D19A | 2.77
24 | D19K | 1.39
25 | D19T | 1.42

Row | Variant | protein stability index
26 | D19I | 2.09
27 | D19G | 2.08
28 | D19C | 2.4
29 | D19P | 2.56
30 | D19S | 2.39
31 | D19N | 2.13
32 | D19M | 2.28
33 | D19F | 2.45
34 | D19L | 2.26
35 | D19H | 2.97
36 | D19Y | 1.47
37 | D19W | 2.96
38 | D19R | 1.36
39 | S23E | 3.28
40 | S23K | 3.58
41 | S23M | 1.84
42 | S23G | 3.13
43 | S23Y | 1.72
44 | S23T | 2.23
45 | S23F | 1.58
46 | S23P | 2.98
47 | S23L | 1.82
48 | S23N | 2.75
49 | S23C | 3.21
50 | S23A | 2.55

Row | Variant | protein stability index
51 | S23H | 3.26
52 | S23W | 2.31
53 | S23D | 2.81
54 | S23R | 2.35
55 | S23I | 2.1
56 | S23Q | 2.6
57 | I20Q | 3.79
58 | I20A | 3.04
59 | I20L | 3.02
60 | I20M | 2.5
61 | I20F | 2.38
62 | I20G | 3.35
63 | I20R | 3.22
64 | I20N | 3.5
65 | I20S | 2.55
66 | I20E | 3.92
67 | I20K | 3.27
68 | I20D | 3.46
69 | I20P | 3.14
70 | I20T | 3.06
71 | I20C | 2.68
72 | I20W | 1.98
73 | I20Y | 2.63
74 | I20H | 2.91
75 | V15D | 3.04

Row | Variant | protein stability index
76 | V15F | 2.54
77 | V15A | 2.6
78 | V15Q | 2.92
79 | V15P | 4.11
80 | V15M | 1.97
81 | V15R | 3.44
82 | V15K | 2.89
83 | V15E | 3.64
84 | V15H | 2.92
85 | V15N | 2.95
86 | V15Y | 2.01
87 | V15C | 2.62
88 | V15L | 2.28
89 | V15T | 2.96
90 | V15S | 2.48
91 | V15W | 2.22
92 | V15I | 2.02
93 | V15G | 2.65
94 | V21H | 2.65
95 | V21W | 2.07
96 | V21Q | 2.15
97 | V21M | 1.96
98 | V21A | 3.47
99 | V21E | 3.88
100 | V21C | 2.53

Row | Variant | protein stability index
101 | V21I | 1.87
102 | V21R | 2.46
103 | V21P | 2.66
104 | V21S | 3.34
105 | V21L | 2.54
106 | V21N | 3.45
107 | V21Y | 2.08
108 | V21D | 4
109 | V21T | 3.2
110 | V21G | 3.28
111 | V21K | 3.22
112 | V21F | 1.8
113 | D17T | 1.69
114 | D17W | 2.1
115 | D17V | 2.65
116 | D17E | 2.07
117 | D17I | 3.91
118 | D17L | 3.14
119 | D17N | 1.45
120 | D17K | 1.77
121 | D17R | 2.92
122 | D17H | 2.48
123 | D17A | 2.33
124 | D17S | 1.28
125 | D17M | 2.29

Row | Variant | protein stability index
126 | D17Y | 2.97
127 | D17Q | 1.77
128 | D17P | 2.21
129 | D17G | 2.14
130 | T16I | 3.14
131 | T16R | 2.44
132 | T16D | 3.37
133 | T16W | 1.24
134 | T16H | 2.44
135 | T16G | 2.01
136 | T16N | 2.59
137 | T16K | 3.06
138 | T16S | 2.92
139 | T16Q | 2.54
140 | T16P | 2.23
141 | T16A | 2.23
142 | T16C | 1.72
143 | T16E | 3.01
144 | T16M | 1.48
145 | T16L | 1.72
146 | T16Y | 1.3
147 | K24Y | 2.06
148 | K24E | 3.39
149 | K24D | 2.77
150 | K24G | 2.55

Row | Variant | protein stability index
151 | K24H | 2.48
152 | K24R | 2.39
153 | K24A | 2.24
154 | K24C | 2.02
155 | K24L | 2.99
156 | K24N | 3.05
157 | K24T | 1.97
158 | K24Q | 2.35
159 | K24W | 2.25
160 | K24S | 2.44
161 | K24P | 2.62
162 | F22P | 3.47
163 | F22W | 2.3
164 | F22Q | 3.59
165 | F22M | 3.12
166 | F22N | 3.66
167 | F22H | 4.43
168 | F22A | 2.5
169 | F22T | 3.48
170 | F22L | 2.08
171 | F22K | 3.94
172 | F22R | 3.31
173 | F22V | 2.53
174 | F22D | 3.96
175 | F22S | 2.78

Row | Variant | protein stability index
176 | F22E | 4.25
177 | F22Y | 2.84
178 | F22G | 4.09
179 | F22C | 3.38
180 | F22I | 2.09
181 | T14I | 2.76
182 | T14P | 2.75
183 | T14D | 2.68
184 | T14V | 1.72
185 | T14E | 3.2
186 | T14R | 2.4
187 | T14M | 1.6
188 | T14W | 2.52
189 | T14N | 2.73
190 | T14G | 3.05
191 | T14Y | 2.15
192 | T14H | 2.61
193 | T14K | 2.48
194 | T14S | 2.83
195 | T14L | 1.84
196 | T14F | 1.91
197 | T14Q | 2.7

Variants of: B2
Assay: as above
Settings: c terminus: a fixed tail appended

Row | Variant | protein stability index
198 | Q5F | 3.27
199 | Q5W | 1.08
200 | Q5A | 4.57
201 | Q5H | 3.87
202 | Q5V | 3.33
203 | Q5T | 3.99
204 | Q5C | 3.96
205 | Q5K | 3.67
206 | Q5E | 3.82
207 | Q5M | 2.92
208 | Q5S | 4
209 | Q5R | 2.86
210 | Q5N | 3.44
211 | Q5L | 2.17
212 | Q5I | 3.17
213 | Q5P | 3.63
214 | L8F | 3.23
215 | L8S | 4.62
216 | L8Q | 5.05
217 | L8Y | 4.4
218 | L8T | 4.34
219 | L8E | 5.03
220 | L8K | 4.16

Row | Variant | protein stability index
221 | L8R | 3.72
222 | L8I | 3.66
223 | L8M | 3.99
224 | L8D | 5.05
225 | L8N | 4.45
226 | L8C | 4.03
227 | L8W | 4
228 | L8P | 4.72
229 | L8A | 4.43
230 | L8V | 2.97
231 | L8G | 4.39
232 | F1H | 4.47
233 | F1N | 4.4
234 | F1Y | 3.27
235 | F1L | 4.51
236 | F1V | 4.67
237 | F1W | 3.76
238 | F1I | 3.5
239 | F1E | 4.33
240 | F1G | 3.9
241 | F1K | 4.45
242 | F1S | 4.09
243 | F1T | 4.28

Row | Variant | protein stability index
244 | F1C | 2.3
245 | F1M | 4.39
246 | F1P | 4.59
247 | F1Q | 4.74
248 | F1D | 5.18
249 | R7Y | 2.99
250 | R7I | 3.67
251 | R7M | 3.54
252 | R7P | 4.07
253 | R7V | 3.43
254 | R7C | 3.37
255 | R7Q | 3.64
256 | R7F | 3.82
257 | R7A | 4.42
258 | R7H | 4.35
259 | R7L | 2.94
260 | R7G | 3.09
261 | R7E | 4.55
262 | R7D | 4.65
263 | R7K | 4.19
264 | I9G | 4.3
265 | I9K | 4.27
266 | I9C | 4.43

Row | Variant | protein stability index
267 | I9D | 3.5
268 | I9H | 3.05
269 | I9F | 3.53
270 | I9M | 3.58
271 | I9L | 4.44
272 | I9A | 4.86
273 | H3F | 2.06
274 | H3R | 3.73
275 | H3V | 3.87
276 | H3L | 3.25
277 | H3N | 3.05
278 | H3Q | 3.51
279 | H3W | 2.99
280 | H3D | 4.52
281 | H3G | 3.79
282 | H3C | 3.63
283 | H3S | 3.17
284 | H3M | 3.71
285 | H3I | 3.59
286 | H3E | 4.28
287 | H3P | 4
288 | H3A | 3.72
289 | L4Q | 4.47

Row | Variant | protein stability index
290 | L4F | 3.87
291 | L4R | 4.28
292 | L4V | 3.54
293 | L4N | 4.14
294 | L4P | 4.62
295 | L4T | 4.27
296 | L4G | 5.22
297 | L4M | 4.04
298 | L4D | 4.02
299 | L4H | 4.79
300 | L4A | 3.78
301 | L4S | 4.8
302 | L4W | 3.8
303 | L4Y | 3.85
304 | L4I | 3.24
305 | D2Q | 4.32
306 | D2F | 1.89
307 | D2K | 3.24
308 | D2Y | 2.8
309 | D2S | 4.75
310 | D2L | 2.33
311 | D2C | 1.72
312 | D2E | 4.18

Row | Variant | protein stability index
313 | D2P | 4.23
314 | D2H | 3.1
315 | D2A | 2.78
316 | D2G | 2.82
317 | D2I | 1.04
318 | D2M | 2.17
319 | D2R | 3
320 | D2T | 1.93
321 | N6E | 3.87
322 | N6P | 4.46
323 | N6I | 2.56
324 | N6K | 3.81
325 | N6A | 3.58
326 | N6T | 1.91
327 | N6F | 2.38
328 | N6Y | 2.95
329 | N6V | 2.55
330 | N6C | 1.88
331 | N6M | 3.32
332 | N6S | 3.31
333 | N6Q | 4.1
334 | N6G | 3.03

Reference: the supplement of paper PMC10567573
